Experimental data reported in PMC5980995, “An allostatic mechanism for M2 pyruvate kinase as an amino-acid sensor” (Biochemical Journal, 2018).

Target: the molecule itself
Test: cell-based or functional assay

B1: M2 isoenzyme of pyruvate kinase (M2PYK), human, N-terminal His6 tag (enzyme)
chain: not shown
- half-life of the loss of enzyme activity (LDH-coupled assay) after dilution from 20 mg/ml to 0.002 mg/ml in PBS-CM pH 7.4, taken as dissociation of the tetramer: ~15 min
